Here are results for 62 sequences from the supplement of paper PMC7877785.

± gives the uncertainty stated by the source.

The data set is described as follows: self-splicing fitness, log relative to wild type (ln ratio); higher = more splicing; Tetrahymena group I intron in knt gene, E. coli kanamycin selection, DiMSum; sequences stand for … in CUCUCU…GGAGGGAAAAGUUAUCAGGCAUGCACCUGGUAGCUAGUCUUUAAACCAAUAGAUUGCAUCGGUUUAAAAGGCAAGACCGUCAAAUUGCGGGAAAGGGGUCAACAGCCGUUCAGUACCAAGUCUCAGGGGAAACUUUGAGAUGGCCUUGCAAAGGGUAUGGUAAUAAGCUGACGGACAUGGUCCUAACCACGCAGCCAAGUCCUAAGUCAACAGAUCUUCUGUUGAUAUGGAUGCAGUUCACAGACUAAAUGUCGGUCGGGGAAGAUGUAUUCUUCUCAUAAGAUAUAGUCGGACCUCUCCUUAAUGGGAGCUAGCGGAUGAAGUGAUGCAACACUGGAGCCGCUGGGAACUAAUUUGUAUGCGAAAGUAUAUUGAUUAGUUUUGGAGUACUCGUGGUCG
An outline of the steps:
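A randomised library covering all eight P1ex-region intron nucleotides was built with the intron in the knt kanamycin-resistance gene on pET-22b(+) and held in E. coli BL21(DE3). Cells were grown overnight at 37°C or 30°C on LB agar, with or without 25 μg/mL kanamycin, plus 100 μg/mL carbenicillin, 50 μM IPTG and 0.2% rhamnose, and pooled colonies were amplicon-sequenced on an Illumina HiSeq 2500. DiMSum fitness is the error-weighted combination of wild-type-normalised replicate fold changes, kanamycin versus none.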

On to CAUCAGCAAUAUUACGCCUA, for which the “self-splicing fitness (ln)” value is -1.55 ± 0.1 (30 °C) and -1.03 ± 0.1 (37 °C).
Taken in the same sequence, the figures for CCAGAGCAAUAUUACGGCAA were -2.25 ± 0.38 and -2.28 ± 0.3.
As to UCCUAGCAAUAUUACGCGUU, the “self-splicing fitness (ln)” value reads like this: (30 °C) -2.01 ± 0.095; (37 °C) -0.94 ± 0.1.
As to GGGCAGCAAUAUUACGUGUU, the “self-splicing fitness (ln)” value by setting is: (30 °C) -1.64 ± 0.072; (37 °C) -0.906 ± 0.08.
Consider CCCAAGCAAUAUUACGCAGA, for which the “self-splicing fitness (ln)” value (30 °C) is -2.74 ± 0.21 and the “self-splicing fitness (ln)” value (37 °C) was -2.72 ± 0.14.
On the same counts, the results for AUGAAGCAAUAUUACGAACC are 0.0578 ± 0.14 and 0.124 ± 0.17.
Taken in the same sequence, the figures for CAUUAGCAAUAUUACGACGG were -0.257 ± 0.094 and -0.0198 ± 0.13.
On the same counts, the results for AGAAAGCAAUAUUACGCCAG are -2.29 ± 0.2 and -0.433 ± 0.17.
With AGCAAGCAAUAUUACGCCUA, the “self-splicing fitness (ln)” value reads like this: (30 °C) -0.835 ± 0.08; (37 °C) -0.537 ± 0.084.
Regarding GGCUAGCAAUAUUACGAUCC, the “self-splicing fitness (ln)” value (30 °C) worked out at 0.227 ± 0.47.
Consider CAGUAGCAAUAUUACGGGCA, for which the “self-splicing fitness (ln)” value reads like this: (30 °C) -3.05 ± 0.27; (37 °C) -2.35 ± 0.25.
Taken in the same sequence, the figures for GAUCAGCAAUAUUACGGUGC were -2.03 ± 0.13 and -0.734 ± 0.11.
AGUUAGCAAUAUUACGCUGU: the “self-splicing fitness (ln)” value (30 °C) was -2.3 ± 0.14 and the “self-splicing fitness (ln)” value (37 °C) is -2.01 ± 0.21.
On the same counts, the results for CCCCAGCAAUAUUACGGGUU are -3.63 ± 0.11 and -1.85 ± 0.092.
On the same counts, the results for UCAGAGCAAUAUUACGGCGC are -1.6 ± 0.2 and -2.6 ± 0.45.
Taken in the same sequence, the figures for AGAAAGCAAUAUUACGGUUA were -0.628 ± 0.1 and -0.679 ± 0.083.
With UCUUAGCAAUAUUACGUUAU, the “self-splicing fitness (ln)” value (30 °C) was -3.27 ± 0.28 and the “self-splicing fitness (ln)” value (37 °C) was -2.3 ± 0.28.
Taken in the same sequence, the figures for UUAGAGCAAUAUUACGCGAA were -0.809 ± 0.14 and -0.155 ± 0.18.
Taken in the same sequence, the figures for UCGAAGCAAUAUUACGGAAC were -3.33 ± 0.38 and -0.421 ± 0.39.
For the sequence GCCUAGCAAUAUUACGAGGG, the “self-splicing fitness (ln)” value was -3.68 ± 0.21 (30 °C) and -1.6 ± 0.15 (37 °C).
As to AAAAAGCAAUAUUACGACCC, the “self-splicing fitness (ln)” value reads like this: (30 °C) 0.000517 ± 0.17; (37 °C) 0.616 ± 0.24.
As for UCCUAGCAAUAUUACGCUCA, the “self-splicing fitness (ln)” value (37 °C) was -2.48 ± 0.42.
For the sequence CCGCAGCAAUAUUACGUAGG, the “self-splicing fitness (ln)” value reads like this: (30 °C) -2.6 ± 0.068; (37 °C) -2.95 ± 0.13.
Taken in the same sequence, the figures for UCAAAGCAAUAUUACGCGAA were -1.88 ± 0.11 and -0.986 ± 0.12.
On the same counts, the results for GUAUAGCAAUAUUACGUUCU are -2.27 ± 0.13 and -0.863 ± 0.13.
On the same counts, the results for CGAGAGCAAUAUUACGCAUA are -2.12 ± 0.44 and -1.44 ± 0.49.
Take GCGGAGCAAUAUUACGUCCA: the “self-splicing fitness (ln)” value is, setting by setting: (30 °C) -2.88 ± 0.33; (37 °C) -0.822 ± 0.32.
As for AGGGAGCAAUAUUACGAUGG, under “37 °C”, the “self-splicing fitness (ln)” value is -1.29 ± 0.32.
For the sequence CCAAAGCAAUAUUACGAGCG, the “self-splicing fitness (ln)” value is -0.496 ± 0.069 (30 °C) and -0.161 ± 0.1 (37 °C).
On the same counts, the results for UUGGAGCAAUAUUACGCGAG are -1.15 ± 0.13 and -1.8 ± 0.21.
On the same counts, the results for GACAAGCAAUAUUACGAUCG are -0.776 ± 0.086 and -0.39 ± 0.11.
Take AGUAAGCAAUAUUACGGAAU: the “self-splicing fitness (ln)” value is -2.75 ± 0.14 (30 °C) and -1.5 ± 0.15 (37 °C).
Taken in the same sequence, the figures for GCAUAGCAAUAUUACGGGUA were -0.992 ± 0.12 and -1.11 ± 0.11.
On the same counts, the results for GGCAAGCAAUAUUACGGCCU are -2.74 ± 0.18 and 0.111 ± 0.23.
On the same counts, the results for ACCUAGCAAUAUUACGUCAC are -4.1 ± 0.18 and -1.83 ± 0.2.
Regarding CCUGAGCAAUAUUACGUCUA, the “self-splicing fitness (ln)” value by setting is: (30 °C) -2.86 ± 0.31; (37 °C) -1.69 ± 0.3.
Taken in the same sequence, the figures for UGGAAGCAAUAUUACGCAGA were -2.85 ± 0.21 and -0.966 ± 0.14.
With UGGUAGCAAUAUUACGAACU, the “self-splicing fitness (ln)” value was -0.279 ± 0.12 (30 °C) and 0.0176 ± 0.18 (37 °C).
Taken in the same sequence, the figures for GUGGAGCAAUAUUACGUGAG were -2.1 ± 0.19 and -2.39 ± 0.21.
Taken in the same sequence, the figures for CACUAGCAAUAUUACGUAGC were -3.47 ± 0.19 and -2.94 ± 0.23.
Taken in the same sequence, the figures for GUCUAGCAAUAUUACGGUGC were 0.0594 ± 0.14 and -0.142 ± 0.15.
For UUGAAGCAAUAUUACGUACA, the “self-splicing fitness (ln)” value reads like this: (30 °C) 0.247 ± 0.1; (37 °C) 0.767 ± 0.14.
On the same counts, the results for CGACAGCAAUAUUACGACGU are -1.07 ± 0.07 and 0.0477 ± 0.086.
On the same counts, the results for GUACAGCAAUAUUACGCUUU are -2.99 ± 0.12 and -1.19 ± 0.12.
Taken in the same sequence, the figures for UUGCAGCAAUAUUACGUAAG were -0.486 ± 0.089 and 0.527 ± 0.11.
Take AAUAAGCAAUAUUACGUUGC: the “self-splicing fitness (ln)” value was -3.52 ± 0.19 (30 °C) and -2.53 ± 0.2 (37 °C).
On the same counts, the results for ACCAAGCAAUAUUACGGAGG are -1.63 ± 0.12 and -1.8 ± 0.29.
On the same counts, the results for CCAAAGCAAUAUUACGUUAU are -3.2 ± 0.13 and -2.68 ± 0.15.
Taken in the same sequence, the figures for AGGGAGCAAUAUUACGAUCG were -2.68 ± 0.27 and -2.19 ± 0.46.
For the sequence CUGAAGCAAUAUUACGACGC, the “self-splicing fitness (ln)” value (30 °C) was -3.78 ± 0.35.
CAUGAGCAAUAUUACGGAUC: where the note is “37 °C”, the “self-splicing fitness (ln)” value is -2.94 ± 0.33.
Take GUGGAGCAAUAUUACGGUUG: the “self-splicing fitness (ln)” value (30 °C) was -3.04 ± 0.15.
As to ACCGAGCAAUAUUACGGAUC, the “self-splicing fitness (ln)” value by setting is: (30 °C) -3.86 ± 0.26; (37 °C) -1.95 ± 0.2.
In the case of GUUGAGCAAUAUUACGUCAU, the “self-splicing fitness (ln)” value was -2.26 ± 0.21 (30 °C) and -2.44 ± 0.38 (37 °C).
On to CAUGAGCAAUAUUACGUGAG, for which the “self-splicing fitness (ln)” value is -3.88 ± 0.37 (30 °C) and -2.55 ± 0.24 (37 °C).
On the same counts, the results for UCUUAGCAAUAUUACGAUGU are -1.95 ± 0.11 and -0.623 ± 0.13.
On to GGUCAGCAAUAUUACGUUGA, for which the “self-splicing fitness (ln)” value by setting is: (30 °C) -3.12 ± 0.27; (37 °C) -1.76 ± 0.25.
As to UCCGAGCAAUAUUACGCACA, the “self-splicing fitness (ln)” value is -3.21 ± 0.22 (30 °C) and -0.221 ± 0.13 (37 °C).
On the same counts, the results for AGGCAGCAAUAUUACGACGG are -2.49 ± 0.16 and -0.746 ± 0.22.
Taken in the same sequence, the figures for AGAGAGCAAUAUUACGAGCA were -2.68 ± 0.46 and -1.31 ± 0.27.
On the same counts, the results for CGUAAGCAAUAUUACGCAUG are -1.88 ± 0.13 and -0.863 ± 0.13.
For GGGGAGCAAUAUUACGCUUG, the “self-splicing fitness (ln)” value (30 °C) was -2.43 ± 0.17 and the “self-splicing fitness (ln)” value (37 °C) was -0.967 ± 0.18.
